The values that follow come from the supplement of paper PMC10567573.

B1: FCHSD1 (parent)
chain: LEAAEVILEHAHRGEQTTSQVSWE
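Also: lentivirally expressed fusions sorted by FACS into six bins by GFP to DsRed ratio, PSI derived from sequencing read proportions per bin multiplied by bin number.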

The variants in this data set derive from B1. The data set can be described thus: protein stability index of a GFP-peptide fusion (GPS, HEK-293T) (PSI 1-6); higher = more stable. The settings on record: c terminus: a fixed tail appended.
In the case of LEAAEVILEHAHRGEQTTMQVSWE [S19M], the protein stability index was determined as 3.

As to LEAAEVILEHAHRGEQTTYQVSWE [S19Y], the protein stability index worked out at 2.64.

As for LEAAEVILEHAHRGEQTTFQVSWE [S19F], the protein stability index is 2.97.

As to LEAAEVILEHAHRGEQTTLQVSWE [S19L], the protein stability index came out at 2.8.

For LEAAEVILEHAHRGEQTTVQVSWE [S19V], the protein stability index is 2.37.

As for LEAAEVILEHAHRGEQTTNQVSWE [S19N], the protein stability index amounted to 4.7.

Turning to LEAAEVILEHAHRGEQTTHQVSWE [S19H], the protein stability index is 4.14.

For the variant LEAAEVILEHAHRGEQTTTQVSWE [S19T], the protein stability index turned out to be 4.21.

For the variant LEAAEVILEHAHRGEQTTIQVSWE [S19I], the protein stability index came to 3.02.

Turning to LEAAEVILEHAHRGEQTTQQVSWE [S19Q], the protein stability index is 4.89.

Regarding LEAAEVILEHAHRGEQTTRQVSWE [S19R], the protein stability index was determined as 4.42.

In the case of LEAAEVILEHAHRGEQTTKQVSWE [S19K], the protein stability index turned out to be 4.45.

For the variant LEAAEVILEHAHRGEQTTPQVSWE [S19P], the protein stability index turned out to be 4.7.

With LEAAEVILEHAHRGEQTTSQVKWE [S22K], the protein stability index was 4.93.

Turning to LEAAEVILEHAHRGEQTTSQVGWE [S22G], the protein stability index was 4.89.

Regarding LEAAEVILEHAHRGEQTTSQVCWE [S22C], the protein stability index is 3.85.

Consider LEAAEVILEHAHRGEQTTSQVPWE [S22P], for which the protein stability index worked out at 5.17.

Regarding LEAAEVILEHAHRGEQTTSQVVWE [S22V], the protein stability index stood at 5.24.

As to LEAAEVILEHAHRGEQTTSQVDWE [S22D], the protein stability index turned out to be 4.77.

LEAAEVILEHAHRGEQTTSQVLWE [S22L]: the protein stability index is 3.79.

As to LEAAEVILEHAHRGEQTTSQVYWE [S22Y], the protein stability index worked out at 4.63.

Regarding LEAAEVILEHAHRGEQTTSQVNWE [S22N], the protein stability index was determined as 4.47.

In the case of LEAAEVILEHAHRGEQTTSQVQWE [S22Q], the protein stability index stood at 4.98.

Turning to LEAAEVILEHAHRGEQTTSQVRWE [S22R], the protein stability index amounted to 3.74.

Take LEAAEVILEHAHRGEQTTSQVTWE [S22T]: the protein stability index was 3.8.

Consider LEAAEVILEHAHRGEQTTSQVFWE [S22F], for which the protein stability index was 3.71.

As to LEAAEVILEHAHRGEQTTSQVEWE [S22E], the protein stability index worked out at 4.68.

Regarding LEAAEVILEHAHRGEQTTSQVMWE [S22M], the protein stability index was 4.54.

With LEAAEVILEHAHRGEQTTSQVIWE [S22I], the protein stability index was 4.41.

As to LEAAEVILEHAHRGEQTTSQVAWE [S22A], the protein stability index amounted to 4.57.

Turning to LEAAEVILEHAHRGEQTTSQVSNE [W23N], the protein stability index worked out at 3.89.

With LEAAEVILEHAHRGEQTTSQVSSE [W23S], the protein stability index turned out to be 5.24.

Consider LEAAEVILEHAHRGEQTTSQVSDE [W23D], for which the protein stability index is 5.55.

As to LEAAEVILEHAHRGEQTTSQVSQE [W23Q], the protein stability index worked out at 5.54.

Regarding LEAAEVILEHAHRGEQTTSQVSYE [W23Y], the protein stability index was found to be 4.71.

LEAAEVILEHAHRGEQTTSQVSLE [W23L]: the protein stability index was 5.12.

Turning to LEAAEVILEHAHRGEQTTSQVSAE [W23A], the protein stability index turned out to be 5.32.

As for LEAAEVILEHAHRGEQTTSQVSEE [W23E], the protein stability index turned out to be 5.79.

In the case of LEAAEVILEHAHRGEQTTSQVSPE [W23P], the protein stability index was 5.29.

For LEAAEVILEHAHRGEQTTSQVSHE [W23H], the protein stability index is 5.61.

As for LEAAEVILEHAHRGEQTTSQVSCE [W23C], the protein stability index stood at 3.4.

Consider LEAAEVILEHAHRGEQTTSQVSRE [W23R], for which the protein stability index is 4.58.

Regarding LEAAEVILEHAHRGEQTTSQVSIE [W23I], the protein stability index stood at 4.2.

For LEAAEVILEHAHRGEQTTSQVSKE [W23K], the protein stability index was 4.41.

As to LEAAEVILEHAHRGEQTTSQVSME [W23M], the protein stability index worked out at 4.23.

In the case of LEAAEVILEHAHRGEQTTSQVSTE [W23T], the protein stability index amounted to 4.9.

As to LEAAEVILEHAHRGEQTTSQVSFE [W23F], the protein stability index is 4.64.

As to LEAAEVILEHAHRGEQTTSQVSWV [E24V], the protein stability index was 3.07.

Regarding LEAAEVILEHAHRGEQTTSQVSWI [E24I], the protein stability index turned out to be 2.01.

Consider LEAAEVILEHAHRGEQTTSQVSWN [E24N], for which the protein stability index came to 3.92.

For the variant LEAAEVILEHAHRGEQTTSQVSWH [E24H], the protein stability index was 4.

As for LEAAEVILEHAHRGEQTTSQVSWQ [E24Q], the protein stability index came to 3.95.

For the variant LEAAEVILEHAHRGEQTTSQVSWR [E24R], the protein stability index came out at 3.47.

As to LEAAEVILEHAHRGEQTTSQVSWL [E24L], the protein stability index was 2.95.

Turning to LEAAEVILEHAHRGEQTTSQVSWS [E24S], the protein stability index was found to be 4.46.

Consider LEAAEVILEHAHRGEQTTSQVSWA [E24A], for which the protein stability index amounted to 3.2.

For the variant LEAAEVILEHAHRGEQTTSQVSWG [E24G], the protein stability index came out at 2.57.

On to LEAAEVILEHAHRGEQTTSQVSWP [E24P], for which the protein stability index came out at 4.3.

Turning to LEAAEVILEHAHRGEQTTSQVSWF [E24F], the protein stability index was 2.65.

For LEAAEVILEHAHRGEQTTSQVSWY [E24Y], the protein stability index came to 3.99.

As for LEAAEVILEHAHRGEQTTSQVSWM [E24M], the protein stability index stood at 2.72.

With LEAAEVILEHAHRGEQTTSQVSWC [E24C], the protein stability index is 3.88.

In the case of LEAAEVILEHAHRGEQTTSQVSWK [E24K], the protein stability index stood at 4.64.

With LEAAEVILEHAHRGEQTTSQVSWW [E24W], the protein stability index stood at 2.66.

With LEAAEVILEHAHRGEQTTSQNSWE [V21N], the protein stability index is 4.92.

Turning to LEAAEVILEHAHRGEQTTSQQSWE [V21Q], the protein stability index worked out at 4.44.

For LEAAEVILEHAHRGEQTTSQCSWE [V21C], the protein stability index is 4.62.

On to LEAAEVILEHAHRGEQTTSQASWE [V21A], for which the protein stability index came to 5.21.

Take LEAAEVILEHAHRGEQTTSQFSWE [V21F]: the protein stability index is 3.3.

On to LEAAEVILEHAHRGEQTTSQLSWE [V21L], for which the protein stability index turned out to be 4.58.

Consider LEAAEVILEHAHRGEQTTSQGSWE [V21G], for which the protein stability index was found to be 4.94.

For the variant LEAAEVILEHAHRGEQTTSQPSWE [V21P], the protein stability index is 5.55.

Take LEAAEVILEHAHRGEQTTSQESWE [V21E]: the protein stability index came out at 5.07.

As for LEAAEVILEHAHRGEQTTSQMSWE [V21M], the protein stability index was 4.32.

Turning to LEAAEVILEHAHRGEQTTSQRSWE [V21R], the protein stability index is 4.18.

For LEAAEVILEHAHRGEQTTSQSSWE [V21S], the protein stability index came to 5.51.

With LEAAEVILEHAHRGEQTTSQYSWE [V21Y], the protein stability index was 3.9.

Consider LEAAEVILEHAHRGEQTTSQKSWE [V21K], for which the protein stability index is 4.68.

Regarding LEAAEVILEHAHRGEQTTSQISWE [V21I], the protein stability index worked out at 3.5.

As for LEAAEVILEHAHRGEQTTSQTSWE [V21T], the protein stability index amounted to 4.64.

Turning to LEAAEVILEHAHRGEQTTSIVSWE [Q20I], the protein stability index worked out at 4.42.

With LEAAEVILEHAHRGEQTTSMVSWE [Q20M], the protein stability index came out at 4.34.

For LEAAEVILEHAHRGEQTTSYVSWE [Q20Y], the protein stability index came to 4.26.

As to LEAAEVILEHAHRGEQTTSDVSWE [Q20D], the protein stability index was found to be 5.02.

As to LEAAEVILEHAHRGEQTTSAVSWE [Q20A], the protein stability index amounted to 3.72.

LEAAEVILEHAHRGEQTTSVVSWE [Q20V]: the protein stability index stood at 4.02.

Take LEAAEVILEHAHRGEQTTSFVSWE [Q20F]: the protein stability index turned out to be 3.76.

In the case of LEAAEVILEHAHRGEQTTSLVSWE [Q20L], the protein stability index stood at 4.17.

As to LEAAEVILEHAHRGEQTTSCVSWE [Q20C], the protein stability index was 3.95.

For LEAAEVILEHAHRGEQTTSHVSWE [Q20H], the protein stability index came out at 4.2.

With LEAAEVILEHAHRGEQTTSPVSWE [Q20P], the protein stability index is 4.38.

For the variant LEAAEVILEHAHRGEQTTSNVSWE [Q20N], the protein stability index was determined as 4.86.

Take LEAAEVILEHAHRGEQTTSSVSWE [Q20S]: the protein stability index was 4.51.

In the case of LEAAEVILEHAHRGEQTTSKVSWE [Q20K], the protein stability index is 5.02.

For LEAAEVILEHAHRGEQTTSRVSWE [Q20R], the protein stability index came to 4.45.

Turning to LEAAEVILEHAHRGEQTTSTVSWE [Q20T], the protein stability index came out at 3.86.
